Measurements from the supplement of paper PMC10065799, “High-throughput profiling of sequence recognition by tyrosine kinases and SH2 domains using bacterial peptide display” (eLife, 2023).

Assays:
SHP2-C SH2 = assay: SH2 binding enrichment of the phosphorylated peptide, bacterial display (enrichment ratio); higher = better substrate or ligand; peptides without Tyr show the background
c-Src SH2 = assay: as above
Grb2 SH2 = Grb2 SH2 (UniProt P62993); assay: as above
Fer (mouse) = assay: phosphorylation enrichment, bacterial display (enrichment ratio); higher = better substrate or ligand; peptides without Tyr show the background
FGFR1 = FGFR1 (UniProt P11362); assay: as above
Chain of FGFR1 (P11362 whole entry, looked up): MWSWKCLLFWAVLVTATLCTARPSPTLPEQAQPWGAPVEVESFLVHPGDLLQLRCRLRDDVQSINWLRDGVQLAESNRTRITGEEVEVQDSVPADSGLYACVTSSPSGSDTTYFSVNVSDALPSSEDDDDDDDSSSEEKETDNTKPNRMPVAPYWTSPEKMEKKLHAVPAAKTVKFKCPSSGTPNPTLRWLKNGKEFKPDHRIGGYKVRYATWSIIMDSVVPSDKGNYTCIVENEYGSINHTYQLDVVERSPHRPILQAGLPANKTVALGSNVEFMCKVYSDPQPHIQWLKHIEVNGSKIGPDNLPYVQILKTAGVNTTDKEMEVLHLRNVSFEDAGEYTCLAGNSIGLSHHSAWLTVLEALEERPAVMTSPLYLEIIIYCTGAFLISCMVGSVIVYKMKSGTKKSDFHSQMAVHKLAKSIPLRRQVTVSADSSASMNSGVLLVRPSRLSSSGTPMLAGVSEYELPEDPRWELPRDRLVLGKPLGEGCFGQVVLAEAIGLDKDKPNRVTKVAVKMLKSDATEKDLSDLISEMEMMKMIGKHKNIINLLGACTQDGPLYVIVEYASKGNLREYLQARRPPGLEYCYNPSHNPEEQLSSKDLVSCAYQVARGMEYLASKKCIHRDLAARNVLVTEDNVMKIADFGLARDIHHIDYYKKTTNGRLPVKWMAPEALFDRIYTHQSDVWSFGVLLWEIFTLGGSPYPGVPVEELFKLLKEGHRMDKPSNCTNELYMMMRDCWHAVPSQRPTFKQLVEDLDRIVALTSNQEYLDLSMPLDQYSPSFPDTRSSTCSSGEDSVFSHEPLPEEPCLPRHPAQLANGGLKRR

FGFR3 = FGFR3 (UniProt P22607); assay: as above
Fyn = Fyn (UniProt P06241); assay: as above
Fes = Fes (UniProt P07332); assay: as above
EPHB2 = EPHB2 (UniProt P29323); assay: as above
Chain of EPHB2 (P29323 whole entry, looked up): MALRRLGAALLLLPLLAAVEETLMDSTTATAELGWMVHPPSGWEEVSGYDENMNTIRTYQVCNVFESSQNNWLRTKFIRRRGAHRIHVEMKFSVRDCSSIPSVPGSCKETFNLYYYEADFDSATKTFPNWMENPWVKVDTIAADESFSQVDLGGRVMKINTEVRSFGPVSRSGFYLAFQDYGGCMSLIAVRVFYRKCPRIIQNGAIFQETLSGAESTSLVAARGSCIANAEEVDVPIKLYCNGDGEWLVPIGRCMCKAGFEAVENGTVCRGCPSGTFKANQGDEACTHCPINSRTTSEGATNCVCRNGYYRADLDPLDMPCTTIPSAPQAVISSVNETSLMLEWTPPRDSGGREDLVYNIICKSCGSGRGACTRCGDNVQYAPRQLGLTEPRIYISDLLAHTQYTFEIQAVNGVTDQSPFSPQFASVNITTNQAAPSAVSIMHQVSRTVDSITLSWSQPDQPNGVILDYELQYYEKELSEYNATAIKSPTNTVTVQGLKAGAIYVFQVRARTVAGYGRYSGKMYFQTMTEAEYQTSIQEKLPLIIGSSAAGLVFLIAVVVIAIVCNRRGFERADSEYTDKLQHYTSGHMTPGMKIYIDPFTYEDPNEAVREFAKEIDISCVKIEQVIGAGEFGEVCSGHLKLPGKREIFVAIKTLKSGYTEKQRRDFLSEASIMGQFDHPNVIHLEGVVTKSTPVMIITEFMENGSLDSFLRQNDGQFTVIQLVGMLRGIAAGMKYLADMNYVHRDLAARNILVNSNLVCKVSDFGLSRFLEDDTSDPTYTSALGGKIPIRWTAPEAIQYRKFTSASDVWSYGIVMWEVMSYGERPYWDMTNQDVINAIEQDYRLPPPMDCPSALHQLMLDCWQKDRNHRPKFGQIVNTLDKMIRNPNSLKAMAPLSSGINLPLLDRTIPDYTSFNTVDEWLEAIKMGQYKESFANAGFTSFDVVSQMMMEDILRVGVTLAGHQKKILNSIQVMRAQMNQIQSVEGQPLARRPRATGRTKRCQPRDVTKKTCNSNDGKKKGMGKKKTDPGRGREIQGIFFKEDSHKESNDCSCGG

AncSZ = assay: as above
MERTK = MERTK (UniProt Q12866); assay: as above
EPHB1 = EPHB1 (UniProt P54762); assay: as above
Chain of EPHB1 (P54762 whole entry, looked up): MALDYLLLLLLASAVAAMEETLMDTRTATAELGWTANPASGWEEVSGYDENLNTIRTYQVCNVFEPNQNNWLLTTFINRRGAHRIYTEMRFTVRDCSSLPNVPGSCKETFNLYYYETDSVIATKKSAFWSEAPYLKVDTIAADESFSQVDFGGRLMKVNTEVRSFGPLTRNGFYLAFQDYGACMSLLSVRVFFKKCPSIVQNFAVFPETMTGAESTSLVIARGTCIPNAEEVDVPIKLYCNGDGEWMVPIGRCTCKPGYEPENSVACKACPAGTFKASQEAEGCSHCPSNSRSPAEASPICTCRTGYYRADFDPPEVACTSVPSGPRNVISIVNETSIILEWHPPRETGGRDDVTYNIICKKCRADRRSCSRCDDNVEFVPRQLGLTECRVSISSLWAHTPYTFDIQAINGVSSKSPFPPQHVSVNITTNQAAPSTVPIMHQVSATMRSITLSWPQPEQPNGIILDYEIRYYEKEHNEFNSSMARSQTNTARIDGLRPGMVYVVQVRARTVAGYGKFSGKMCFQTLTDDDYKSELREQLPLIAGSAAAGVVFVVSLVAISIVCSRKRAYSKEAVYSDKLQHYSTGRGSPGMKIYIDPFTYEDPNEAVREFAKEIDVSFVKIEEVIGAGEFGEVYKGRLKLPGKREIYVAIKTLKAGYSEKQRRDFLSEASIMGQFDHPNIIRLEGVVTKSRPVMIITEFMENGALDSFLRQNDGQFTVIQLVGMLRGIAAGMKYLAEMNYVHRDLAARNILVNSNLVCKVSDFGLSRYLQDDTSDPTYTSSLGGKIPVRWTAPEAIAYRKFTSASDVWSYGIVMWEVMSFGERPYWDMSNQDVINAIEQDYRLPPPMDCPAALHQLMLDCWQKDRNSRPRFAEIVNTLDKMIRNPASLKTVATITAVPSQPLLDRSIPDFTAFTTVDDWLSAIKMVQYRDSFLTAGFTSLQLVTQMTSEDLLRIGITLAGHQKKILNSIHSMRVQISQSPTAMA

Hck = Hck (UniProt P08631); assay: as above
Chain of Hck (P08631 whole entry, looked up): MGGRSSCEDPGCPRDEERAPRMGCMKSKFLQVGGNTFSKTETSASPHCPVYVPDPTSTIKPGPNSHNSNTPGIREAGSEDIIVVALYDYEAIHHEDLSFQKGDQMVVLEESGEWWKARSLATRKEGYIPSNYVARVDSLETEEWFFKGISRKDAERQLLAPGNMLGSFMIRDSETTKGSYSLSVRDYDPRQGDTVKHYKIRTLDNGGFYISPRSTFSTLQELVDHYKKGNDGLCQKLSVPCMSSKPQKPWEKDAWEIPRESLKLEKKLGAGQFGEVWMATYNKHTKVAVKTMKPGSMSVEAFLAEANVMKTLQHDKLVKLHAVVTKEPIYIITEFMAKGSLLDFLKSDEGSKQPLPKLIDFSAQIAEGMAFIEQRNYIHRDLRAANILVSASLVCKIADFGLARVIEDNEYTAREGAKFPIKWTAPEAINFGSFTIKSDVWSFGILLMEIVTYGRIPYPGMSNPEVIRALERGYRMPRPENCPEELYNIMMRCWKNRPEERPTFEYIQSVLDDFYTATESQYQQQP

Jak2 = Jak2 (UniProt O60674); assay: as above
Chain of Jak2 (O60674 whole entry, looked up): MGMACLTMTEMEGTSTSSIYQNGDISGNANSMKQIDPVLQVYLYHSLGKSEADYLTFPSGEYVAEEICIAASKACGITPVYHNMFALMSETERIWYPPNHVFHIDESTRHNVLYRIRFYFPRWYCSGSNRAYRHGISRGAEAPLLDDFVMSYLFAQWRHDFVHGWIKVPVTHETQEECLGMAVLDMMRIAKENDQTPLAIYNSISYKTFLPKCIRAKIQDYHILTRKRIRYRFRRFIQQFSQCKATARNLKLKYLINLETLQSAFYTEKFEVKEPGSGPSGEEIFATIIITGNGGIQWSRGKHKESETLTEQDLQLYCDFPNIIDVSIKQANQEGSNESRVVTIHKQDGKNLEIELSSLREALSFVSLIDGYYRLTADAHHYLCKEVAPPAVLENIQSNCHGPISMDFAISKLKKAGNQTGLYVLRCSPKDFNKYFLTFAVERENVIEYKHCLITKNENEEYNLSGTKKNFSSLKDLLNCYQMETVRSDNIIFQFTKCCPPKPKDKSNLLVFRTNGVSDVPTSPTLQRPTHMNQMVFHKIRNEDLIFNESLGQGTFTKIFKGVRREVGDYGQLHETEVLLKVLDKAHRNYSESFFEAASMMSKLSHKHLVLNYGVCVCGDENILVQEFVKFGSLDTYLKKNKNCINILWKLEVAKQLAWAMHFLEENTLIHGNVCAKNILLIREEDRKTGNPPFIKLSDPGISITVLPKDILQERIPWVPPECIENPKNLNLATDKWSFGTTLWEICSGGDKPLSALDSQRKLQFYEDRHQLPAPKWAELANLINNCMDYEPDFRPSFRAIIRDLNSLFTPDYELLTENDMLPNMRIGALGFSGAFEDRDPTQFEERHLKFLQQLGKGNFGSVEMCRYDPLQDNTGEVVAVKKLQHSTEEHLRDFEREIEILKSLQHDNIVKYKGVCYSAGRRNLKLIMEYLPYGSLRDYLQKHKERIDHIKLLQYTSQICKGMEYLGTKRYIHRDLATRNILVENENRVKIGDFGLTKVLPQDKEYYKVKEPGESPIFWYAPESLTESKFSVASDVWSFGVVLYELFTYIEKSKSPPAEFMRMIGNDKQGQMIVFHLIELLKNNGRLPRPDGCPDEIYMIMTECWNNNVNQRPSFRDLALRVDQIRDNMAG

c-Src = assay: as above
c-Abl (mouse) = assay: as above
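For SH2 binding enrichment of the phosphorylated peptide, bacterial display in this document: peptide library displayed on the E. coli surface as eCPX fusions, selected cells deep-sequenced, score is each peptide's frequency after selection divided by its frequency in the input.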
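For phosphorylation enrichment, bacterial display in this document: 11-residue human phosphosite peptides and single-mutation variants displayed on the E. coli surface, counted by deep sequencing, each peptide's frequency after selection divided by its frequency in the unselected input library; frequency after pTyr selection over input frequency; kinase dosed for 20-30% of maximal phosphorylation in three min.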

Chain of Grb2 SH2 (P62993 whole entry, looked up): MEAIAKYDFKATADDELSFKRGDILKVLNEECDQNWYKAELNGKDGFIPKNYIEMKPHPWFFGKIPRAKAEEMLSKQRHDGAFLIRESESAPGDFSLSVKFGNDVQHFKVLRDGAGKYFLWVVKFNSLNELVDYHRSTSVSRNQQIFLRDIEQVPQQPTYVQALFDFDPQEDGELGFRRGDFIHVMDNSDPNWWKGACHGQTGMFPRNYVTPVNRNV

| Sequence | SH2 binding enrichment (SHP2-C SH2) | SH2 binding enrichment (c-Src SH2) | SH2 binding enrichment (Grb2 SH2) | phosphorylation enrichment (Fer (mouse)) | phosphorylation enrichment (FGFR1) | phosphorylation enrichment (FGFR3) | phosphorylation enrichment (Fyn) | phosphorylation enrichment (Fes) | phosphorylation enrichment (EPHB2) | phosphorylation enrichment (AncSZ) | phosphorylation enrichment (MERTK) | phosphorylation enrichment (EPHB1) | phosphorylation enrichment (Hck) | phosphorylation enrichment (Jak2) | phosphorylation enrichment (c-Src) | phosphorylation enrichment (c-Abl (mouse)) |
| --- | --- | --- | --- | --- | --- | --- | --- | --- | --- | --- | --- | --- | --- | --- | --- | --- |
| LAAPKYKLNVD [SMARCA2_Y1190_A1188P] | 0.592 | 0.325 | 0.713 | 0.291 | 0.258 | 0.518 | 0.546 | 0.961 | 0.307 | 0.46 | 0.346 | 0.205 | 0.551 | 0.353 | 0.44 | 0.422 |
| LAIERYVVVCK [RHO_Y136] | 0.679 | 0.476 | 0.674 | 1.32 | 0.766 | 1.21 | 0.597 | 2.33 | 1.09 | 1.83 | 0.732 | 0.938 | 0.862 | 1.9 | 0.859 | 1.51 |
| LAVPLYKNGVK [CPS1_Y1069] | 0.708 | 0.512 | 1.12 | 1.04 | 0.904 | 0.836 | 0.777 | 0.856 | 1.67 | 1.23 | 1.42 | 1.09 | 0.574 | 0.933 | 0.416 | 0.777 |
| LDCNEYFRDLN [HPRT1_Y198_Y195C] | 0.927 | 0.704 | 1.07 | 0.697 | 0.966 | 1.34 | 0.906 | 1.73 | 0.922 | 1.82 | 0.687 | 0.933 | 0.911 | 1.5 | 0.487 | 1.15 |
| LDVGEYCVPRG [BEX1_Y43_A40V] | 0.698 | 0.503 | 0.755 | 0.842 | 0.982 | 1.23 | 1.09 | 1.21 | 2.47 | 5.36 | 0.568 | 2.26 | 0.853 | 1.32 | 0.539 | 3.73 |
| LDYNEYFRNLN [HPRT1_Y198_D201N] | 0.967 | 0.507 | 0.81 | 0.48 | 0.596 | 0.844 | 0.49 | 1.14 | 0.751 | 2.08 | 0.382 | 0.559 | 0.69 | 1.79 | 0.657 | 0.849 |
| LEGAKYVSHGA [ASS1_Y113_R108L] | 0.516 | 0.446 | 1.18 | 0.928 | 1 | 1.17 | 0.973 | 1.14 | 1.03 | 0.835 | 0.551 | 0.682 | 0.606 | 0.696 | 0.605 | 0.852 |
| LEHCQYVTQKV [ALDOB_Y204_E207Q] | 1.18 | 0.731 | 0.957 | 0.648 | 0.656 | 0.763 | 0.47 | 1.04 | 0.924 | 1.01 | 0.401 | 0.818 | 0.507 | 1.03 | 0.617 | 0.727 |
| LERFIYNPEEF [HLA-DPB1_Y59_R61P_YF] | 0.866 | 0.399 | 0.791 | 0.927 | 0.934 | 1.71 | 1.75 | 1.75 | 0.708 | 2.02 | 0.618 | 0.738 | 1.33 | 1.32 | 2.4 | 1.09 |
| LFHENYNAGTY [CFI_Y421_I416L] | 0.818 | 0.704 | 0.9 | 0.822 | 0.78 | 0.633 | 0.605 | 1.1 | 0.626 | 1.06 | 0.537 | 0.521 | 0.527 | 0.976 | 1.3 | 1.22 |
| LFLALYTGLVH [PIGB_Y402] | 0.7 | 1.51 | 1.43 | 1.46 | 0.775 | 1.39 | 1.42 | 2.02 | 1.4 | 2.04 | 1.2 | 1.26 | 2.29 | 1.53 | 2.11 | 1.38 |
| LGPSDYFGETA [PRKAR1A_Y323_I327T] | 0.499 | 0.59 | 0.817 | 0.422 | 0.585 | 0.636 | 0.518 | 0.808 | 0.425 | 0.964 | 0.398 | 0.597 | 0.509 | 0.749 | 0.55 | 0.448 |
| LGSVVYAQSKE [KCNQ2_Y226_H228Q] | 1.6 | 0.528 | 0.974 | 0.99 | 0.852 | 1.39 | 1.08 | 1.31 | 0.97 | 1.61 | 1.1 | 1.86 | 1.29 | 1.19 | 1.08 | 1.24 |
| LKGQVYILGWE [ASS1_Y359_R363W] | 0.827 | 0.684 | 1.01 | 0.642 | 0.544 | 0.81 | 0.575 | 1.4 | 0.57 | 1.14 | 0.428 | 0.655 | 0.508 | 1.14 | 0.575 | 0.804 |
| LLANAYIYDVQ [L1CAM_Y418_V421D] | 1.13 | 0.818 | 0.803 | 0.802 | 0.391 | 0.616 | 6.7 | 1.27 | 1.56 | 1.17 | 2.71 | 1.46 | 4.13 | 1.22 | 3.69 | 0.538 |
| LLKAGYQGVLR [TTPA_Y100_H101Q] | 1.3 | 1.23 | 1.38 | 0.425 | 0.67 | 0.565 | 0.265 | 0.73 | 0.366 | 0.502 | 0.459 | 0.648 | 0.713 | 0.55 | 0.311 | 0.442 |
| LLKANYELLNA [POLR3A_Y714_K713N] | 0.973 | 1.51 | 0.834 | 0.551 | 0.457 | 0.78 | 0.431 | 0.865 | 0.804 | 0.975 | 0.976 | 1.28 | 0.459 | 0.857 | 0.814 | 0.949 |
